According to patent US20200247855A1 (published 2020):
Changes are numbered by the printed parent chain. In names and notes the source's numbering stands. Read-outs that look alike come from different tables or passages of the source.

How the values were obtained:
[1] = molecular target: T1, CXCL11_HUMAN (human, UniProt O14625 22-94); assay: BLI
T1 chain: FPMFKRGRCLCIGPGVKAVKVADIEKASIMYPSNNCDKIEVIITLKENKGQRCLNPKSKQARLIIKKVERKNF

[2] = molecular target: CXCL10_HUMAN (human, UniProt P02778 22-98); assay: BLI
CXCL10_HUMAN, sequence (P02778 22-98): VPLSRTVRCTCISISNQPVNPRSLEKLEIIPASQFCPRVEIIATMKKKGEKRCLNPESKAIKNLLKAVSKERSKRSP

[3] = molecular target: T2, CXCL3_HUMAN (human, UniProt P19876 35-107); assay: BLI
T2 sequence (P19876 35-107): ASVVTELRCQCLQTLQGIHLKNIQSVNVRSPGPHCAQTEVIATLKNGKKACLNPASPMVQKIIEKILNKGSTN

[4] = molecular target: T3, CXCL1_HUMAN (human, UniProt P09341 35-107); assay: BLI
T3 sequence (P09341 35-107): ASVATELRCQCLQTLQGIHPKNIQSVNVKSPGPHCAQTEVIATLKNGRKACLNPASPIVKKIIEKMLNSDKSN

[5] = molecular target: T4, CXCL7_HUMAN (human, UniProt P02775 59-128); assay: BLI
T4 chain: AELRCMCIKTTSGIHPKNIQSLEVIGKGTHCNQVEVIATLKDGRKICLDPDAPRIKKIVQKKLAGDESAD

[6] = molecular target: CXCL4; assay: BLI
[7] = molecular target: CXCL5; assay: BLI
[8] = molecular target: CXCL6; assay: BLI
[9] = molecular target: CXCL2; assay: BLI
[10] = molecular target: T5, CXCL8_HUMAN (human, UniProt P10145 28-99); assay: BLI
T5 sequence (P10145 28-99): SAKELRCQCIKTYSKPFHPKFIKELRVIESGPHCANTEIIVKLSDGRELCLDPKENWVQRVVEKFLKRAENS

[11] = molecular target: T2, CXCL3_HUMAN; assay: BLI; remark: listed apart in the source
[12] = molecular target: T3, CXCL1_HUMAN; assay: BLI; remark: listed apart in the source
[13] = molecular target: CXCL5; assay: BLI; remark: listed apart in the source
[14] = molecular target: CXCL2; assay: BLI; remark: listed apart in the source
[15] = molecular target: T6, CCL27_HUMAN (human, UniProt Q9Y4X3 25-112); assay: BLI
T6 chain: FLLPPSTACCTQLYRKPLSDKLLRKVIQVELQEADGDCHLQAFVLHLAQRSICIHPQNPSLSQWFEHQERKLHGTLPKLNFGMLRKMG

[16] = molecular target: T7, CCL15_HUMAN (human, UniProt Q16663 22-113); assay: BLI
T7 chain: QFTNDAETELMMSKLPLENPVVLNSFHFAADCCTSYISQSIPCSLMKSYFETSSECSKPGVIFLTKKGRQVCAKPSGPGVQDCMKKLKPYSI

[17] = molecular target: T8, CCL22_HUMAN (human, UniProt O00626 25-93); assay: BLI
T8 chain: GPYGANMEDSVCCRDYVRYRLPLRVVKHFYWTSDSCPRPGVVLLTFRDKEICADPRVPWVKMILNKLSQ

[18] = molecular target: T9, CCL14_HUMAN (human, UniProt Q16627 22-93); assay: BLI
T9 chain: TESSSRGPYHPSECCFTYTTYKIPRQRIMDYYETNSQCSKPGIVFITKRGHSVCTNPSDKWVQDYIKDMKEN

[19] = molecular target: T10, CCL3L1_HUMAN (human, UniProt P16619 24-93); assay: BLI
T10 chain: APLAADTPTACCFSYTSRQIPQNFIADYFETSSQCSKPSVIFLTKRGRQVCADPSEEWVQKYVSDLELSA

[20] = molecular target: T11, CCL17_HUMAN (human, UniProt Q92583 24-94); assay: BLI
T11 chain: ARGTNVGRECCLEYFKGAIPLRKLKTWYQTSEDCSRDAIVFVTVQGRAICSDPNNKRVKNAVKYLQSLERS

[21] = molecular target: T12, CCL23_HUMAN (human, UniProt P55773 22-120); assay: BLI
T12 chain: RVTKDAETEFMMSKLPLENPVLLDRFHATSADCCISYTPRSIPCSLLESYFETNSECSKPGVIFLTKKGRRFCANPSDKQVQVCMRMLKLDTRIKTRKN

[22] = molecular target: T13, CCL21_HUMAN (human, UniProt O00585 24-134); assay: BLI
T13 chain: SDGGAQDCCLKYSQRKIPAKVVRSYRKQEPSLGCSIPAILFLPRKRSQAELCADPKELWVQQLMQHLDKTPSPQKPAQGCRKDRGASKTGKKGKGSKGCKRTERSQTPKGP

[23] = molecular target: CCL7_HUMAN (human, UniProt P80098 24-99); assay: BLI
CCL7_HUMAN, sequence (P80098 24-99): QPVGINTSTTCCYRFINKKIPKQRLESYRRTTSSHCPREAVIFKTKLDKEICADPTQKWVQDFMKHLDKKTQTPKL

[24] = molecular target: CCL2_HUMAN (human, UniProt P13500 24-99); assay: BLI
CCL2_HUMAN, sequence (P13500 24-99): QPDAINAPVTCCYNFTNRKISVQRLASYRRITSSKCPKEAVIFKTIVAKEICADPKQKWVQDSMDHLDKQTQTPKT

[25] = molecular target: T14, CCL24_HUMAN (human, UniProt O00175 27-104); assay: BLI
T14 chain: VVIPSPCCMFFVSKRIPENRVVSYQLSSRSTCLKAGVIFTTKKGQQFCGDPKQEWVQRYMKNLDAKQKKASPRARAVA

[26] = molecular target: T15, CCL16_HUMAN (human, UniProt O15467 24-120); assay: BLI
T15 chain: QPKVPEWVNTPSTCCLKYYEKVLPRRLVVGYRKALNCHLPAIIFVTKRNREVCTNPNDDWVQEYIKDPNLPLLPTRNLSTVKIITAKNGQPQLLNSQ

[27] = molecular target: T16, CCL5_HUMAN (human, UniProt P13501 24-91); assay: BLI
T16 chain: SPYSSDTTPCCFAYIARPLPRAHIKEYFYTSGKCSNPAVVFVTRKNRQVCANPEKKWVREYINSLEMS

[28] = molecular target: CCL13_HUMAN (human, UniProt Q99616 24-98); assay: BLI
CCL13_HUMAN, sequence (Q99616 24-98): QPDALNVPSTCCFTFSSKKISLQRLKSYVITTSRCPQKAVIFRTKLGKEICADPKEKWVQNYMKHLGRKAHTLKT

[29] = molecular target: T17, CCL4_HUMAN (human, UniProt P13236 24-92); assay: BLI
T17 chain: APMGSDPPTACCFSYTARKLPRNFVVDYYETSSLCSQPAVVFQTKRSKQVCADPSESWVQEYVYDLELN

[30] = molecular target: T18, CCL8_HUMAN (human, UniProt P80075 24-99); assay: BLI
T18 chain: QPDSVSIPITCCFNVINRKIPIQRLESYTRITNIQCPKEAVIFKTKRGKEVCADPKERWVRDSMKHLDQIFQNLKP

[31] = molecular target: CCL11_HUMAN (human, UniProt P51671 24-97); assay: BLI
CCL11_HUMAN, sequence (P51671 24-97): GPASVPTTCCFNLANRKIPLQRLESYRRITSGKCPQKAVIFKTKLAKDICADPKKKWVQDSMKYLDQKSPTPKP

[32] = molecular target: T19, CCL3_HUMAN (human, UniProt P10147 24-92); assay: BLI
T19 chain: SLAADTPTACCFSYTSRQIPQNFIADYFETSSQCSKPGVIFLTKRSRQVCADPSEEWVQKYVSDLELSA

[33] = molecular target: T20, CCL1_HUMAN (human, UniProt P22362 24-96); assay: BLI
T20 chain: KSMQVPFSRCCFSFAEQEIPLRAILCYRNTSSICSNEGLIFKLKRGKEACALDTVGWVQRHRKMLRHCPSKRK

[34] = molecular target: T21, CCL18_HUMAN (human, UniProt P55774 21-89); assay: BLI
T21 chain: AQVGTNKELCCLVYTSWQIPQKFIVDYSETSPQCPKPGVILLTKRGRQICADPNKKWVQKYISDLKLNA

[35] = molecular target: T22, CCL4L1_HUMAN (human, UniProt Q8NHW4 24-92); assay: BLI
T22 chain: T17 chain with S47G

[36] = molecular target: T5, CXCL8_HUMAN; assay: BLI; remark: listed apart in the source
[37] = molecular target: T2, CXCL3_HUMAN; assay: BLI; previously obtained data
[38] = molecular target: CXCL6_HUMAN; assay: BLI
[39] = molecular target: CXCL5_HUMAN; assay: BLI
[40] = molecular target: CXCL2_HUMAN; assay: BLI

B1: P1142_AMBCA (other)
chain: KPQILQRTDHSTDSDWDPQMCPETCNPSKNISCSSECLCVTLGGGDETGTCFNMSGVDWLGHAQASDGHNDG
Kd [1]: 322 nM
Kd [2]: 7.46 nM
Kd [3]: 5.65 nM
Kd [4]: 4.61 nM
Kd [5]: 1.83 nM
Kd [6]: 381 nM
Kd [7]: 9.81 nM
Kd [8]: 6.27 nM
Kd [9]: 2.14 nM

B2: P1126_AMBCA (other)
chain: KPQILQRTDKSTDSEWDPQTCPETCIPSKNITCSDGCVCVKLGEEEEGTCFNMTGVDWLGSPSDD
Kd [1]: 394 nM
Kd [2]: 7.9 nM
Kd [3]: 13.3 nM
Kd [4]: 10.5 nM
Kd [5]: 6.05 nM
Kd [6]: 393 nM
Kd [7]: 12.1 nM
Kd [8]: 9.12 nM
Kd [9]: 5.11 nM

B3: P1156:G4S:P991 (designed binder)
chain: ADDDNELFTVQYCGMNCTKDEGGTWTGCTGKKEGCKCYHESGKNYGLCLSTEYTDFSQYGNPSDSEIEAAKPKRSDTLSHGGGGSENGEGTTQPDYDNSTDYYNYEDFKCTCPAPHLNNTNGTVMKPIGCYYTCNVTRCTAPDTYPCYNLTEHQAKNLTTSPTTLCAVGNCDHGICVPNGTKELCFKAPNLEE
Kd [10]: 1.5 nM
Kd [11]: 61.4 nM
Kd [12]: 2.72 nM
Kd [13]: 22.7 nM
Kd [14]: 25.2 nM
Kd [15]: 36.2 nM
Kd [16]: 166 nM
Kd [17]: 2.18 nM
Kd [18]: 0.664 nM
Kd [19]: 3.09 nM
Kd [20]: 7.44 nM
Kd [21]: 7 nM
Kd [22]: 19.9 nM
Kd [23]: 0.435 nM
Kd [24]: 32.1 nM
Kd [25]: 3.58 nM
Kd [26]: 0.503 nM
Kd [27]: 0.754 nM
Kd [28]: 0.207 nM
Kd [29]: 3.55 nM
Kd [30]: 7.45 nM
Kd [31]: 1.54 nM
Kd [32]: 1.89 nM
Kd [33]: 16.6 nM
Kd [34]: 0.201 nM
Kd [35]: 1.28 nM

B4: P1156_IXORI (other)
chain: ADDDNELFTVQYCGMNCTKDEGGTWTGCTGKKEGCKCYHESGKNYGLCLSTEYTDFSQYGNPSDSEIEAAKPKRSDTLSH
Kd [36]: 2.9 nM
Kd [3]: 70.4 nM
Kd [4]: 5.8 nM
Kd [7]: 29.8 nM
Kd [8]: 62.7 nM
Kd [9]: 50.6 nM
Kd [10]: 4.84 nM
Kd [12]: 6.53 nM
Kd [37]: 70.4 nM
Kd [38]: 117 nM
Kd [39]: 71.9 nM
Kd [40]: 17 nM

B5: P991:G4S:P1156 (designed binder)
chain: ENGEGTTQPDYDNSTDYYNYEDFKCTCPAPHLNNTNGTVMKPIGCYYTCNVTRCTAPDTYPCYNLTEHQAKNLTTSPTTLCAVGNCDHGICVPNGTKELCFKAPNLEEGGGGSADDDNELFTVQYCGMNCTKDEGGTWTGCTGKKEGCKCYHESGKNYGLCLSTEYTDFSQYGNPSDSEIEAAKPKRSDTLSH
Kd [10]: 3.56 nM
Kd [11]: 89.9 nM
Kd [12]: 5.08 nM
Kd [13]: 52.7 nM
Kd [14]: 48.9 nM
Kd [15]: 42.6 nM
Kd [16]: 127 nM
Kd [17]: 2.36 nM
Kd [18]: 0.835 nM
Kd [19]: 2.91 nM
Kd [20]: 5.8 nM
Kd [21]: 5.13 nM
Kd [22]: 18.2 nM
Kd [23]: 0.287 nM
Kd [24]: 24.8 nM
Kd [25]: 3.18 nM
Kd [26]: 0.636 nM
Kd [27]: 0.947 nM
Kd [28]: 0.176 nM
Kd [29]: 3.54 nM
Kd [30]: 7.89 nM
Kd [31]: 1.39 nM
Kd [32]: 2.22 nM
Kd [33]: 7.66 nM
Kd [34]: 0.143 nM
Kd [35]: 1.24 nM
